T1: cIL2Rg-Fc (lot#P210115SV5) (cynomolgus, UniProt A0A2K5VGJ6 23-262)
T1 construct: Named only by lot number; also called cynomolgus IL2Rg-Fc; not shown: Fc of the fusion protein
T1 sequence: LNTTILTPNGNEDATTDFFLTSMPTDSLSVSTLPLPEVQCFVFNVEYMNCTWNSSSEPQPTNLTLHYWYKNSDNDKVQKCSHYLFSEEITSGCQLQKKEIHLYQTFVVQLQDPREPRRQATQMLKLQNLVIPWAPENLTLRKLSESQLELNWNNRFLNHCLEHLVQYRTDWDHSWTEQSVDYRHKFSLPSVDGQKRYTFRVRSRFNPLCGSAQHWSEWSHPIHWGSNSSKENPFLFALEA

T2: hIL2Rg-Fc (SinoBiological cat#10555) (human, UniProt P31785 23-254, limits assumed)
T2 construct: Bought Fc fusion (SinoBiological cat#10555); P31785 is printed for hCD132 in the background; also called human IL2Rg-Fc; not shown: Fc of the bought fusion protein
T2 sequence (looked up): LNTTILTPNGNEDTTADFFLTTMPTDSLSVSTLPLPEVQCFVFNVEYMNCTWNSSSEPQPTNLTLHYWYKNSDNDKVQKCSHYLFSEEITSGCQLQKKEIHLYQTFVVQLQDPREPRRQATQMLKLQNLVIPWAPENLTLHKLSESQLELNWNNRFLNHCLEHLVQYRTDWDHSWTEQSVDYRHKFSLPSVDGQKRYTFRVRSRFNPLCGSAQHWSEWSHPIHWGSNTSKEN


Tests used:
[1] = biological target: T1, cIL2Rg-Fc (lot#P210115SV5); assay: SPR (Biacore T200), Fc-fused ligand captured on chip, dual VHH as analyte, 1:1 Langmuir fit
Experimental: (§1) All experiments were conducted in 10 mM Hepes, 150 mM NaCl, 0.05% (v/v) Polysorbate 20 (PS20) and 3 mM EDTA (HBS-EP+ buffer) on a Biacore T200 instrument equipped with Protein A or CAP biotin chips (Cytiva). For experiments on Protein A chips, Fc-fused ligands were flowed at 5 μl/min for variable time ranging from 18 to 300 seconds, reaching the capture loads listed in the tables below. Following ligand capture, injections of a 2-fold dilution series of analyte typically comprising at least five concentrations between 1 μM and 1 nM were performed in either high performance or single cycle kinetics mode. Surface regeneration was achieved by flowing 10 mM glycine-HCl, pH 1.5 (60 seconds, […]). Buffer-subtracted sensograms were processed with Biacore T200 Evaluation Software and globally fit with a 1:1 Langmuir binding model (bulk shift set to zero) to extract kinetics and affinity constants (kₐ, kd, KD). RMAX<100 RU indicates surface density compatible with kinetics analysis. Experiments on CAP chips were performed as described above with an additional capture step of Biotin CAPture reagent (10 seconds, 40 uL/min) performed prior to capture of biotinylated ligands. Calculated Rmax were generated using the equation Rmax=Load (RU) x valency of ligand x (Molecular weight of analyte/Molecular weight of ligand. Surface activity was defined as the ratio experimental/calculated Rmax. The results of these experiments are provided in below for sample information and experimental results.

[2] = biological target: T2, hIL2Rg-Fc (SinoBiological cat#10555); assay: as above
Experimental: as §1

[3] = biological target: T1, cIL2Rg-Fc (lot#P210115SV5); assay: SPR (Biacore T200); ratio experimental/calculated Rmax
[4] = biological target: T2, hIL2Rg-Fc (SinoBiological cat#10555); assay: as above

Row | Binder | Kd [1] [nM] | koff [1] [s⁻¹] | kon [1] [M⁻¹ s⁻¹] | Kd [2] [nM] | koff [2] [s⁻¹] | kon [2] [M⁻¹ s⁻¹] | Surface Activity [3] [%] | Surface Activity [4] [%]
1 | DR442(DR236-DR232) (bispecific antibody, Anti-hIL10Ra/hIL2Rg dual VHH with ASH6 handle; also called F7) QVQLQESGGGSVQAGGSLRLSCAASRFTYSSYCMGWFRQAPGKEREGVASIDSDGSTSYTDSVKGRFTISKDNAKNTLYLQMNSLKPEDTAMYYCALDLMSTVVPGFCGFLLSAGMDYWGKGTQVTVSSGGGSQVQLQESGGGSVQAGGSLRLSCVASGYTSCMGWFRQAPGKEREAVATIYTRGRSIYYADSVKGRFTISQDNAKNTLYLQMNSLKPEDIAMYSCAAGGYSWSAGCEFNYWGQGTQVTVSSASHHHHHH | 41.3 | 0.0033 | 79000 | 21.5 | 0.042 | 2e+06 | 7 | 5
2 | DR471(DR241-DR231) (bispecific antibody, Anti-hIL10Ra/hIL2Rg dual VHH with ASH6 handle; also called G3) QVQLQESGGGSVQAGGSLRLSCAASGYSNCSYDMTWYRQAPGKEREFVSAIHSDGSTRYADSVKGRFFISQDNAKNTVYLQMNSLKPEDTAMYYCKTDPLHCRAHGGSWYSVRANYWGQGTQVTVSSGGGSQVQLQESGGGSVQAGGSLRLSCTASGFTFDDREMNWYRQAPGNECELVSTISSDGSTYYADSVKGRFTISQDNAKNTVYLQMDSVKPEDTAVYYCAADFMIAIQAPGAGCWGQGTQVTVSSASHHHHHH | 13.4 | 0.0048 | 360000 | 16.6 | 0.0057 | 340000 | 1 | 5

Reference: US20250163162A1 (SYNTHEKINE, published 2025)
